# Measurements as given in the supplement of paper PMC10724198.
# ± gives the standard deviation of the averaged measurements.
# Tested on: Saccharomyces cerevisiae
# Test: protein stability index of tFT-peptide fusion (C-terminal peptide) (PSI (0-1 scale)); higher = more stable (slower turnover)
# Details: genetic background: wild type; temperature: 30 C
# 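Further: PSI is a weighted mean of sequencing reads over stability bins, variants kept only with over 10 reads, mCherry proximal and sfGFP distal, peptide attached via GGGS linker.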
row,Sequence,protein stability index
1,PRPAPGGSPALT,0.689 ± 0.083
2,PRPAPLPAPPPS,0.679 ± 0.029
3,PRPISLFPLPPP,0.693 ± 0.057
4,PRPLPPPPAFLP,0.766 ± 0.08
5,PRPPAPRTGPPP,0.633 ± 0.011
6,PRPPHPPPSSPR,0.69 ± 0.096
7,PRPPPPRIPRPD,0.7 ± 0.12
8,PRPPPPSVARVP,0.64711 ± 0.0003
9,PRPPRWSSPWPV,0.719 ± 0.058
10,PRPPYTPSPPHQ,0.774 ± 0.016
11,PRPRSPLSPLAL,0.676 ± 0.031
12,PRPRTQPHPGPG,0.711 ± 0.0096
13,PRQLPVRKVSTG,0.7042 ± 0.0022
14,PRRHLALLISEG,0.6868 ± 0.00082
15,PRRPAPSPLPTP,0.718 ± 0.2
16,PRRPATTSIPTT,0.672 ± 0.038
17,PRRPLPPSPPRE,0.729 ± 0.022
18,PRRRLVLDDRPT,0.72823 ± 6.5e-05
19,PRSPPHLRWTRY,0.686 ± 0.013
20,PRSPPLTHVSLH,0.697 ± 0.043
21,PRSPPPPSPPPY,0.583 ± 0.02
22,PRSPPSPTLPHP,0.609 ± 0.027
23,PSAASIFLPFPL,0.733 ± 0.048
24,PSAGPVVLPTPP,0.704 ± 0.013
25,PSCALAFRSEPH,0.741 ± 0.018
26,PSCDCFLLLAPR,0.665 ± 0.055

row,Sequence,protein stability index
1,PSCPAFPSPPPS,0.696 ± 0.014
2,PSDTHTPDQPAK,0.694 ± 0.056
3,PSELLPQLPSRW,0.702 ± 0.019
4,PSETPSPLTLCS,0.722 ± 0.037
5,PSFSPPQVPFPV,0.721 ± 0.06
6,PSGFPLRSYLPP,0.707 ± 0.049
7,PSGPPPSLFPSA,0.661 ± 0.052
8,PSHGSRPSPPLR,0.676 ± 0.034
9,PSHPPPPATPCP,0.7108 ± 0.0065
10,PSKTTALTGPDP,0.737 ± 0.008
11,PSLLSSPPPPLL,0.737 ± 0.073
12,PSLNNTMLKENK,0.62 ± 0.061
13,PSLPPDLPPPPA,0.744 ± 0.011
14,PSLPPPRRPLSP,0.671 ± 0.017
15,PSLPPSPISPPH,0.588 ± 0.013
16,PSLPVPLVPPLS,0.633 ± 0.014
17,PSLPWSGPPVPC,0.664 ± 0.013
18,PSLQPPLHYPPP,0.6448 ± 0.0044
19,PSLRPPPLPPLS,0.7214 ± 0.0025
20,PSPAALLPPPPP,0.643 ± 0.014
21,PSPALPSLSTPL,0.669 ± 0.047
22,PSPAPPPLPFPR,0.72 ± 0.038
23,PSPAPTPPTPHS,0.721 ± 0.28
24,PSPCRPPHTSAG,0.646 ± 0.048
25,PSPFPCVFRFSA,0.635 ± 0.029
26,PSPHRFPAPTLP,0.687 ± 0.039

row,Sequence,protein stability index
1,PSPLPPPVSRPP,0.691 ± 0.049
2,PSPLRASPTAVF,0.62 ± 0.013
3,PSPPAPFPVCLL,0.617 ± 0.011
4,PSPPFFLTAASL,0.668 ± 0.01
5,PSPPPAPPPHSP,0.665 ± 0.022
6,PSPPPLSSPPSP,0.6425 ± 0.003
7,PSPPPPPALPSH,0.66 ± 0.13
8,PSPPPPPPPQPS,0.722 ± 0.059
9,PSPPPPTVPHPP,0.6779 ± 0.00096
10,PSPPSRFPPCTP,0.76987 ± 0.00013
11,PSPPTLILPPHP,0.663 ± 0.0095
12,PSPPTPHPPCRS,0.746 ± 0.013
13,PSPPYLIPHALS,0.676 ± 0.041
14,PSPRPPPSPPLP,0.695 ± 0.037
15,PSPSAPPPLSPL,0.546 ± 0.052
16,PSPSFLVFATSY,0.628 ± 0.027
17,PSPSPPLAPPVT,0.647 ± 0.038
18,PSPSPPRLLPPP,0.7 ± 0.031
19,PSPSPSPPLPPP,0.652 ± 0.0077
20,PSPSRAPPMAPS,0.6982 ± 0.0013
21,PSPVLLPPFVSP,0.706 ± 0.0089
22,PSRIRPPTASPP,0.76 ± 0.061
23,PSRPLPPPPPPL,0.765 ± 0.14
24,PSRPPPARSSPP,0.652 ± 0.0069
25,PSRPPRLPPASF,0.681 ± 0.046
26,PSRSLSSPPSSR,0.64 ± 0.019

row,Sequence,protein stability index
1,PSSCSPPPSSPS,0.692 ± 0.064
2,PSSPPLPPPSPP,0.644 ± 0.03
3,PSSPPSLSPPLP,0.7177 ± 0.0034
4,PSSPPVLPLHFH,0.728 ± 0.019
5,PSSPSPLRPPSP,0.666 ± 0.096
6,PSSSDHDTRQKK,0.708 ± 0.058
7,PSSSFFFLSSYL,0.706 ± 0.043
8,PSTHPPTLPRPC,0.712 ± 0.024
9,PSTILLRYRPSV,0.825 ± 0.16
10,PSTLPLRLPRMF,0.644 ± 0.057
11,PSTPFAPPSATY,0.685 ± 0.014
12,PSWLLFGVHGGW,0.71 ± 0.056
13,PTGQSSVESGAG,0.693 ± 0.088
14,PTGRGRSAYLVL,0.6875 ± 0.0058
15,PTHCWSGLSGKG,0.703 ± 0.016
16,PTHPHLTLTETP,0.687 ± 0.017
17,PTIMYIRKTEER,0.692 ± 0.043
18,PTIRKDPLGFLR,0.707 ± 0.0084
19,PTKKRQHSDRRK,0.644 ± 0.013
20,PTLFSLLLRAFL,0.623 ± 0.13
21,PTLSPRSPRFAS,0.755 ± 0.035
22,PTNISEKVGAKS,0.671 ± 0.02
23,PTPHPHTGSLEG,0.651 ± 0.011
24,PTPHTTHPQNNT,0.729 ± 0.0062
25,PTPLPRISLTSV,0.667 ± 0.025
26,PTPPLLPPAPSP,0.707 ± 0.048

row,Sequence,protein stability index
1,PTPPPPPSPFAL,0.804 ± 0.15
2,PTPPSPTPLPAT,0.679 ± 0.043
3,PTPSDRLPPPSH,0.712 ± 0.0098
4,PTPVAHSLSLRI,0.637 ± 0.033
5,PTRFLPVPSLFS,0.679 ± 0.048
6,PTSSPAPPLFAF,0.67 ± 0.028
7,PTTAVNLPQGGT,0.68 ± 0.063
8,PTVPYRLVLSTV,0.511 ± 0.056
9,PVALYFIREFSP,0.699 ± 0.013
10,PVAVSQPNGPKD,0.633 ± 0.031
11,PVCIRSLGTALF,0.675 ± 0.0086
12,PVCLHPPPSHTH,0.737 ± 0.061
13,PVDFQSQGECEL,0.695 ± 0.0089
14,PVFNDDTIIRNP,0.761 ± 0.032
15,PVFPPPAPTPPT,0.647 ± 0.046
16,PVINPSCIVMMW,0.65 ± 0.04
17,PVPPPPPPFSLP,0.727 ± 0.032
18,PVPPPPPPPLPP,0.6 ± 0.03
19,PVPPRSPPRLPF,0.6673 ± 0.002
20,PVPPTPPHPGPL,0.617 ± 0.059
21,PVPRCGLPLSLP,0.685 ± 0.1
22,PVSALHLSLSCP,0.698 ± 0.028
23,PVSFPFPISSLS,0.701 ± 0.062
24,PVSPRLLLRFTL,0.691 ± 0.14
25,PVSVSSFFLSRF,0.767 ± 0.21
26,PVVRISRLSFFA,0.674 ± 0.007

row,Sequence,protein stability index
1,PWRPTNPADRSV,0.61 ± 0.1
2,PWWSRPAASVGV,0.659 ± 0.047
3,PYCVTLTLPFSS,0.7134 ± 0.0047
4,PYEFRLISRNTR,0.669 ± 0.095
5,PYFPLRPPSLPI,0.6747 ± 0.0011
6,PYFSLFSRRSLN,0.539 ± 0.02
7,PYFVGSGLVVLC,0.5639 ± 0.0055
8,PYHARPDRSLSG,0.693 ± 0.035
9,PYIFLPLGRAGN,0.723 ± 0.076
10,PYPVTLSRPTPT,0.611 ± 0.15
11,PYRPYLLPGSLA,0.632 ± 0.099
12,QAANPWQRPFGW,0.689 ± 0.087
13,QAGARGRRGVRG,0.678 ± 0.016
14,QAGGEYGLKVRW,0.805 ± 0.033
15,QAGKPLYVEMVS,0.609 ± 0.021
16,QCLTVPRSAHLP,0.607 ± 0.05
17,QDLLNVSSFTRS,0.727 ± 0.017
18,QEQITKETDLTH,0.663 ± 0.013
19,QEREAGVTALIR,0.707 ± 0.04
20,QFEEFKRGFEVA,0.722 ± 0.024
21,QFQRTLCGKRWV,0.685 ± 0.043
22,QFQVWGAPGLKR,0.711 ± 0.12
23,QFVSALVCLSVG,0.5534 ± 0.0015
24,QGCAWWGGGAGG,0.684 ± 0.038
25,QGEKDFRMGSIK,0.632 ± 0.015
26,QGELHRDVYIVI,0.6793 ± 0.0013

row,Sequence,protein stability index
1,QGKPSKWRSGSI,0.646 ± 0.048
2,QGRIVSVILLSL,0.557 ± 0.023
3,QHVDRFVGVNRE,0.715 ± 0.051
4,QIESNLGYWGIG,0.73819 ± 0.00032
5,QILPVLSKPTWI,0.736 ± 0.057
6,QIQNRVDYRIKL,0.6353 ± 0.0031
7,QITYKTLSGINM,0.703 ± 0.065
8,QKEETGGLGGGK,0.6609 ± 0.0025
9,QKERENKHTEIE,0.645 ± 0.21
10,QKINKRPTIRQI,0.603 ± 0.063
11,QKKELQKQKIAK,0.683 ± 0.015
12,QKKKEKKQKEGD,0.678 ± 0.009
13,QKKKKKNKNDQK,0.686 ± 0.056
14,QKKKQTDHTNGV,0.684 ± 0.03
15,QKKTKRGLTYTS,0.67 ± 0.043
16,QKPKKKNTTEKQ,0.689 ± 0.021
17,QKRKMIEKEKEK,0.768 ± 0.098
18,QKWKIIRACVGC,0.606 ± 0.049
19,QLHTTENHHRRL,0.792 ± 0.032
20,QLPGTVVRYTLF,0.6408 ± 0.0041
21,QMTCADGVDCLL,0.589 ± 0.018
22,QPAVKIGYAMAL,0.644 ± 0.048
23,QPITEALHDSCT,0.675 ± 0.098
24,QPNDIEIYTLLT,0.652 ± 0.05
25,QPPLPPPLPGSP,0.741 ± 0.085
26,QPRLRPPLPSPP,0.638 ± 0.069

row,Sequence,protein stability index
1,QPSRQTIPWDTV,0.738 ± 0.037
2,QQNKKKKTRKSG,0.704 ± 0.046
3,QQRVKTYHELHL,0.712 ± 0.013
4,QRGKKKKDKSLV,0.6424 ± 0.0025
5,QRPFRRRRVLCP,0.561 ± 0.054
6,QSAGGTRAKFGG,0.658 ± 0.053
7,QSRFFCDKKVWG,0.6934 ± 0.0049
8,QSTGDFAVRQSF,0.753 ± 0.093
9,QSWEDILKINEE,0.757 ± 0.011
10,QTQTAKEWAYHP,0.686 ± 0.015
11,QTRYAPCQRAPT,0.645 ± 0.08
12,QTTKRKKKAKKK,0.675 ± 0.089
13,QVASVTSLLPYS,0.75 ± 0.032
14,QVGTHVTLCEDP,0.679 ± 0.0098
15,QWGGWGVGRIEG,0.629 ± 0.069
16,QYASPSISTLPV,0.726 ± 0.065
17,RAAPQEDFTFYR,0.771 ± 0.14
18,RAASLVSCSLIL,0.672 ± 0.024
19,RACALLIVGAGG,0.527 ± 0.0085
20,RAFDWFFIFGWC,0.636 ± 0.04
